Like-named read-outs stand apart in the source and are kept apart here.

The chains are these.
B1: Kif7-DM-GFP (1-543aa), dimeric Kif7 protein (domain or fragment, human, UniProt Q2M1P5 1-543, looked up)
chain: MGLEAQRLPGAEEAPVRVALRVRPLLPKELLHGHQSCLQVEPGLGRVTLGRDRHFGFHVVLAEDAGQEAVYQACVQPLLEAFFEGFNATVFAYGQTGSGKTYTMGEASVASLLEDEQGIVPRAMAEAFKLIDENDLLDCLVHVSYLEVYKEEFRDLLEVGTASRDIQLREDERGNVVLCGVKEVDVEGLDEVLSLLEMGNAARHTGATHLNHLSSRSHTVFTVTLEQRGRAPSRLPRPAPGQLLVSKFHFVDLAGSERVLKTGSTGERLKESIQINSSLLALGNVISALGDPQRRGSHIPYRDSKITRILKDSLGGNAKTVMIACVSPSSSDFDETLNTLNYASRAQNIRNRATVNWRPEAERPPEETASGARGPPRHRSETRIIHRGRRAPGPATASAAAAMRLGAECARYRACTDAAYSLLRELQAEPGLPGAAARKVRDWLCAVEGERSALSSASGPDSGIESASVEDQAAQGAGGRKEDEGAQQLLTLQNQVARLEEENRDFLAALEDAMEQYKLQSDRLREQQEEMVELRLRLELVRP
B2: Kif7-DM(E502A)-GFP (domain or fragment, human, UniProt Q2M1P5 1-543, looked up)
chain: MGLEAQRLPGAEEAPVRVALRVRPLLPKELLHGHQSCLQVEPGLGRVTLGRDRHFGFHVVLAEDAGQEAVYQACVQPLLEAFFEGFNATVFAYGQTGSGKTYTMGEASVASLLEDEQGIVPRAMAEAFKLIDENDLLDCLVHVSYLEVYKEEFRDLLEVGTASRDIQLREDERGNVVLCGVKEVDVEGLDEVLSLLEMGNAARHTGATHLNHLSSRSHTVFTVTLEQRGRAPSRLPRPAPGQLLVSKFHFVDLAGSERVLKTGSTGERLKESIQINSSLLALGNVISALGDPQRRGSHIPYRDSKITRILKDSLGGNAKTVMIACVSPSSSDFDETLNTLNYASRAQNIRNRATVNWRPEAERPPEETASGARGPPRHRSETRIIHRGRRAPGPATASAAAAMRLGAECARYRACTDAAYSLLRELQAEPGLPGAAARKVRDWLCAVEGERSALSSASGPDSGIESASVEDQAAQGAGGRKEDEGAQQLLTLQNQVARLEEANRDFLAALEDAMEQYKLQSDRLREQQEEMVELRLRLELVRP

In data set [1] the target is Kif7M-Kif27CC chimera (GFP) (human). The data set is described as follows: SEC. In general terms: In gel filtration, larger molecules generally elute earlier.
Data set [2] deals with Kif27M-Kif7CC chimera (GFP) (human). The data set is described as follows: SEC.
In data set [3] the target is GDP-taxol stabilized microtubules from bovine tubulin (co-sedimentation) (bovine) (UniProt Q6B856). Description: co-sedimentation.
The target is the same in data set [4]. The data set is described as follows: co-sedimentation. This is another data set of the same source.
A further data set concerns the target T1, Gli2-ZF-GFP (human, UniProt P10070 418-604).
T1 sequence (looked up): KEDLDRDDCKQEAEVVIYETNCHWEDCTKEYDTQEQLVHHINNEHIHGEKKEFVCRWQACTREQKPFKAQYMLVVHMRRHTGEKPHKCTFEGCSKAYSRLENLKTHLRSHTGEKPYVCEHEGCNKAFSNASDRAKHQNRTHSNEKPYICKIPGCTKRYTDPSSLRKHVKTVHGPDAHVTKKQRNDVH
The data set is described as follows: SEC.

The data set “SEC” deals with the molecule itself. The data set is described as follows: SEC.
Data set [5] concerns the target B1. The data set is described as follows: TIRF microscopy of proteins on immobilised microtubules.
The data set “Kif7-DM(E502A)-GFP” concerns the target B2. The description is as above.
For data set [6], the target named is T2, Gli2-ZF, zinc-finger domain of Gli2 (recombinant) (human, UniProt P10070 418-604).
T2 sequence (looked up): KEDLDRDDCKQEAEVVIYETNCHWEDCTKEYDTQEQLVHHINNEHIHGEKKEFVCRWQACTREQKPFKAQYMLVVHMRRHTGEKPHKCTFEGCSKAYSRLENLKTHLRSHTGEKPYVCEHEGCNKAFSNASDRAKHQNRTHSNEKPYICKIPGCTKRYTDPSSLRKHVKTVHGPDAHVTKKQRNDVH
The data set is described as follows: BLI. A general note: Biolayer interferometry detects binding as a change in optical thickness at a sensor tip.

Data set [7] concerns the molecule itself. Description: single molecule fluorescence intensity and photobleaching analysis.

Molecule Kif7M-Kif27CC chimera (GFP) came in with a stoichiometry N in data set [1] of 2. Kif27M-Kif7CC chimera (GFP) displayed a stoichiometry N in data set [2] of 2. For B1, the values for the Kd in data set [3] and in data set [4] were 4230 nM and 540 nM, respectively. Besides, the “stoichiometry N” value with Gli2-ZF-GFP was 1 Kif7-DM per Gli2-ZF. Consider B2, for which the “stoichiometry N” value in the data set “SEC” amounted to 2.

B3: Gli2-ZF-SNAP (domain or fragment, human, UniProt P10070 418-604, looked up)
chain: KEDLDRDDCKQEAEVVIYETNCHWEDCTKEYDTQEQLVHHINNEHIHGEKKEFVCRWQACTREQKPFKAQYMLVVHMRRHTGEKPHKCTFEGCSKAYSRLENLKTHLRSHTGEKPYVCEHEGCNKAFSNASDRAKHQNRTHSNEKPYICKIPGCTKRYTDPSSLRKHVKTVHGPDAHVTKKQRNDVH
modifications: Alexa-647 label (in the TIRF assays)
Turning to B3, the “fold above the background fluorescence of Gli alone on microtubules” value in data set [5] was roughly 3 fold. Moreover, the binding result in the data set with Kif7-DM(E502A)-GFP is on record as “binds”.

B4: GST-Kif7-SCC (481-543aa) (domain or fragment, human, UniProt Q2M1P5 481-543, looked up)
chain: KEDEGAQQLLTLQNQVARLEEENRDFLAALEDAMEQYKLQSDRLREQQEEMVELRLRLELVRP
Turning to B4, the dissociation constant Kd in data set [6] is 69 ± 20 nM.

B5: Kif7-CC-GFP (domain or fragment, human, UniProt Q2M1P5 460-600, looked up)
chain: PDSGIESASVEDQAAQGAGGRKEDEGAQQLLTLQNQVARLEEENRDFLAALEDAMEQYKLQSDRLREQQEEMVELRLRLELVRPGWGGPRLLNGLPPGSFVPRPHTAPLGGAHAHVLGMVPPACLPGDEVGSEQRGEQVTN
B5: the “stoichiometry N” value with Gli2-ZF-GFP is 2 Kif7-CC-GFP per Gli2-ZF-GFP.

B6: GST-Kif7-CC (460-600aa) (domain or fragment, human, UniProt Q2M1P5 460-600, looked up)
chain: PDSGIESASVEDQAAQGAGGRKEDEGAQQLLTLQNQVARLEEENRDFLAALEDAMEQYKLQSDRLREQQEEMVELRLRLELVRPGWGGPRLLNGLPPGSFVPRPHTAPLGGAHAHVLGMVPPACLPGDEVGSEQRGEQVTN
With B6, in data set [6], the Kd came out at 48 ± 5 nM.

B7: GST-Kif7-CC D505A (domain or fragment, human, UniProt Q2M1P5 460-600, looked up)
chain: PDSGIESASVEDQAAQGAGGRKEDEGAQQLLTLQNQVARLEEENRAFLAALEDAMEQYKLQSDRLREQQEEMVELRLRLELVRPGWGGPRLLNGLPPGSFVPRPHTAPLGGAHAHVLGMVPPACLPGDEVGSEQRGEQVTN
On to B7, for which the binding result in [6] is given as “binds”.

B8: GFP-tagged GST-Kif7-CC (domain or fragment, human, UniProt Q2M1P5 460-600, looked up)
chain: PDSGIESASVEDQAAQGAGGRKEDEGAQQLLTLQNQVARLEEENRDFLAALEDAMEQYKLQSDRLREQQEEMVELRLRLELVRPGWGGPRLLNGLPPGSFVPRPHTAPLGGAHAHVLGMVPPACLPGDEVGSEQRGEQVTN
As to B8, the “stoichiometry N” value in [7] was determined as 2.

As a reminder, the stoichiometry N is the number of molecules, sites or subunits per partner or assembly. One may read the Kd as a measure of binding affinity in units of concentration.

The record behind these values is article doi:10.1101/2021.09.30.462597 (bioRxiv, 2021).
